According to article PMC12151214:

B1: GFP-HMGA1 (WT) [human] / mCherry-LacI-CHFR [human] (parent)
chain 1: MSESSSKSSQPLASKQEKDGTEKRGRGRPRKQPPVSPGTALVGSQKEPSEVPTPKRPRGRPKGSKNKGAAKTRKTTTTPGRKPRGRPKKLEKEEEEGISQESSEEEQ
chain 2: MERPEEGKQSPPPQPWGRLLRLGAEEGEPHVLLRKREWTIGRRRGCDLSFPSNKLVSGDHCRIVVDEKSGQVTLEDTSTSGTVINKLKVVKKQTCPLQTGDVIYLVYRKNEPEHNVAYLYESLSEKQGMTQESFEANKENVFHGTKDTSGAGAGRGADPRVPPSSPATQVCFEEPQPSTSTSDLFPTASASSTEPSPAGRERSSSCGSGGGGISPKGSGPSVASDEVSSFASALPDRKTASFSSLEPQDQEDLEPVKKKMRGDGDLDLNGQLLVAQPRRNAQTVHEDVRAAAGKPDKMEETLTCIICQDLLHDCVSLQPCMHTFCAACYSGWMERSSLCPTCRCPVERICKNHILNNLVEAYLIQHPDKSRSEEDVQSMDARNKITQDMLQPKVRRSFSDEEGSSEDLLELSDVDSESSDISQPYVVCRQCPEYRRQAAQPPHCPAPEGEPGAPQALGDAPSTSVSLTTAVQDYVCPLQGSHALCTCCFQPMPDRRAEREQDPRVAPQQCAVCLQPFCHLYWGCTRTGCYGCLAPFCELNLGDKCLDGVLNNNSYESDILKNYLATRGLTWKNMLTESLVALQRGVFLLSDYRVTGDTVLCYCCGLRSFRELTYQYRQNIPASELPVAVTSRPDCYWGRNCRTQVKAHHAMKFNHICEQTRFKN

Variants of: B1
Experiment: LacI-LacO fluorescence colocalization assay (GFP-HMGA1 foci intensity at LacO array, ImageJ)
Settings: with mCherry-LacI-CHFR [human]; U2OS-265 cells cotransfected for 24 h; parent: 1.5; read off a plot

Row | Variant | response
1 | chain 1 E50Q | 1
